Laboratory results: US20200369772A1 (ABBA THERAPEUTICS, published 2020)
Positions count from the first letter of the chain named. Names may count otherwise. Where two headings read alike, the source gives them in different places. Blank lines part the entries; values can stand above or below the molecule they belong to.

What was measured:
PD-L2 (human) [1] = target: PD-L2 (human) (UniProt Q9BQ51); test: FACS blocking of PD-1 binding to CHO-K1/hPD-L2; high antigen concentration
endogenous PD-L2 (human) [2] = target: endogenous PD-L2 (human) (UniProt Q9BQ51); test: FACS, NCI-H226 cells
PD-L2 (human) [3] = target: PD-L2 (human) (UniProt Q9BQ51); test: FACS, CHO-K1 expressing human PD-L2
PD-L2 (human) [4] = target: PD-L2 (human) (UniProt Q9BQ51); test: blocking of PD-L2 - PD-1 interaction (cell binding); low antigen concentration
PD-L2 (human) [5] = target: PD-L2 (human) (UniProt Q9BQ51); test: FACS blocking of hPD-L2 binding to HEK293T-hPD-1; low antigen concentration
PD-L2 (human) [6] = target: PD-L2 (human) (UniProt Q9BQ51); test: FACS blocking of PD-1 binding to CHO-K1/hPD-L2; high antigen concentration; remark: listed apart in the source
endogenous PD-L2 (human) [7] = target: endogenous PD-L2 (human) (UniProt Q9BQ51); test: FACS, NCI-H226 cells; remark: listed apart in the source
[8] = target: T1, mouse PD-L2 (full-length, on cells) (mouse, UniProt Q9WUL5 20-247); test: FACS on HEK293T cells expressing mouse PD-L2
T1 construct: whole, on cells; HEK293 cells stably expressing full-length mouse PD-L2
T1 sequence (looked up): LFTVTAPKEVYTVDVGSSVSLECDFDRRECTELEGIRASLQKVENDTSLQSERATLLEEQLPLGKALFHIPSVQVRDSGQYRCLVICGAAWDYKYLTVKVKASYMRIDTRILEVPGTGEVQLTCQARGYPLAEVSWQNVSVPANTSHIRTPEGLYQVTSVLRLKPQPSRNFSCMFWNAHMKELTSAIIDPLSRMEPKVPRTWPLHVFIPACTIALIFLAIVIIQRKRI
Method: (§1) HEK293T cells expressing mouse PD-L2 were incubated with chimeric anti-PD-L2 antibodies. Cells were washed and binding was detected with an FITC-labelled anti-rat IgG Ab (Thermo Fisher Scientific). Flow cytometric analyses were performed using a FACSCalibur flow cytometer (Becton Dickinson). PE-labelled anti-mouse PD-L2 clone TY25 served as positive control. All peaks overlap except for the positive control in FIG. 6F.
(§2) The ability of anti-PD-L2 antibodies binding to mouse PD-L2, human PD-L1 or cyno PD-L2 was determined by FACS. HEK293 cells stably expressing full-length monkey PD-L2, mouse PD-L2 or human PD-L1 were established, subcloned and verified. For binding assay, 1.5×10⁵ cells in 100 μl of FACSwash buffer were incubated with individual anti-PD-L2 antibodies (0.5 μg/ml) for 30 min. After three times of washing, the cells were re-suspended in FACSwash buffer containing FITC-labelled goat-anti-rat IgG (Thermo Fisher, 1:1000) or APC-labelled goat-anti-ratIgG (Biolegend, Clone Poly4054) at a 1:2000 dilution for 20 min at 4° C., washed three times and subsequently subjected to FACS analysis. FACS data was analysed using FlowJo Software and depicted as histograms including secondary antibody only controls.

[9] = target: T2, human PD-L2 (full-length, on cells) (human, UniProt Q9BQ51 20-273); test: FACS binding to CHO-K1 cells expressing human PD-L2
T2 chain: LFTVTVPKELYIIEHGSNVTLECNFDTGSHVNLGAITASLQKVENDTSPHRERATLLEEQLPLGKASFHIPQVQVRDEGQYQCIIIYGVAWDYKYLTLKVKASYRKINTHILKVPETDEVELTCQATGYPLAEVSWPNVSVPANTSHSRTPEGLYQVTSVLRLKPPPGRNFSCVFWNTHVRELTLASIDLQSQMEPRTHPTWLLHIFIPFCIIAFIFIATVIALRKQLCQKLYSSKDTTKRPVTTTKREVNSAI
How it was run: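 Binding to CHO-K1 cells stably expressing full-length human PD-L2 was measured by flow cytometry on a BD FACSCalibur. They were then stained for 20 min at 4° C with APC-labelled anti-rat IgG or anti-human IgG Fc, matching the antibody format. Binding EC50 came from non-linear curve fitting of percentage of maximal binding against concentration in GraphPad Prism.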

[10] = target: T3, human PD-L2 (full-length, on cells) (human, UniProt Q9BQ51 20-273); test: FACS binding on cells expressing human PD-L2 (per the examples)
T3 construct: whole, on cells; CHO-K1 cells stably expressing full-length human PD-L2; also endogenous on NCI-H226 and transfected in Jurkat cells; also called hPD-L2; CHO-K1/hPD-L2
T3 sequence (looked up): T2 chain

[11] = target: T4, human PD-L1 (full-length, on cells) (human, UniProt Q9NZQ7 19-290); test: FACS on HEK293T cells expressing human PD-L1
T4 construct: whole, on cells; HEK293 cells stably expressing full-length human PD-L1
Method: as §1, with “human PD-L1” for “mouse PD-L2”, “anti-human PD-L1” for “anti-mouse PD-L2”, “MIH1” for “TY25”, “7F.” for “6F.”
as §2

[12] = target: T3, human PD-L2 (full-length, on cells); test: FACS on CHO-K1 cells expressing human PD-L2, against the parental antibody
How it was run: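 Sequence-optimised antibodies expressed in HEK293 cells and their parental antibodies were incubated at different concentrations with CHO-K1 cells expressing human PD-L2. Cells were washed and binding was detected with an APC-labelled anti-human Fc antibody by flow cytometry on a FACSCalibur.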

T4 sequence (Q9NZQ7 19-290): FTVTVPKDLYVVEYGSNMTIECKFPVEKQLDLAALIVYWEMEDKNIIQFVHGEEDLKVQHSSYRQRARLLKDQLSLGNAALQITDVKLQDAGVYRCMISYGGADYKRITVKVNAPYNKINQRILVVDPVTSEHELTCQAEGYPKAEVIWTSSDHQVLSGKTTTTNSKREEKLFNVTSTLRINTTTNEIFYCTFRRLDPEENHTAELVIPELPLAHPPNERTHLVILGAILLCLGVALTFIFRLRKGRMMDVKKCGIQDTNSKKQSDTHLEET

IC50 (PD-L2 (human) [1]): 1.8 nM
EC50 (endogenous PD-L2 (human) [2]): 2.69 nM
EC50 (PD-L2 (human) [3]): 1.59 nM
IC50 (PD-L2 (human) [4]): 0.0671 nM
IC50 (PD-L2 (human) [5]): 0.104 nM
IC50 (PD-L2 (human) [6]): 2.42 nM
EC50 (endogenous PD-L2 (human) [7]): 2.21 nM
Molecule: MIH18

binding result [8]: no binding
binding result [11]: no binding
binding result [12]: binds
B4: 19B3-B3 N92Q.LC.M23K.M63L.HC (antibody, V domains shown)
VH: QVQLVQSGAEVKKPGASVKVSCKASGYTFTNYAIHWVRQAPGQRLEWMGWINTGLGKPKYSQLFQDRVTITRDTSASTASMELSGLRSDDTAVYYCARVGWELYFDYWGQGTLVTVSS
VL: DIQMTQSPSTLSASVGDRVTITCRASQSISSLLAWYQQKPGKAPKLLIYKASSLESGVPSRFSGSGSGTEFTLTISSLQPDDFATYFCQQYQSYWTFGQGTKVEIK
notes: Optimized variant of 19B3-B3

Continued, molecule first:

B1: 10A9-D2 N31Q.LC (antibody, V domains shown)
VH: QVQLQESGPGLVKPSETLSLTCAVSGGSISSSYWWSWVRQPPGKGLEWVGEVFHVGVTNYNPSLKSRVTISVDKSKNQFSLKLTSVTAADTAVYYCARVTGTTGYYHGLDVWGQGTTVTVFS
VL: DIQMTQSPSSLSASVGDRVTITCRASQGIRQDLGWYQQKPGKVPKRLIYAASSLQSGIPSRFSGSGSGTEFTLTISSLQPEDFATYYCLQHNNYPRTFGQGTKVEIK
notes: Optimized variant of 10A9-D2
binding result [8]: no binding
EC50 [9]: 0.32 nM
binding result [10]: binds
binding result [11]: no binding

B2: 19B3-B3 M23K.M63L.HC (antibody, V domains shown)
VH: B4 VH
VL: B4 VL with Q92N
notes: Optimized variant of 19B3-B3
binding result [8]: no binding
EC50 [9]: 0.38 nM
binding result [10]: binds
binding result [11]: no binding

B3: 19B3-B3 N92Y.LC.M23K.M63L.HC (antibody, V domains shown)
VH: B4 VH
VL: B4 VL with Q92Y
notes: Optimized variant of 19B3-B3
binding result [8]: no binding
binding result [11]: no binding
binding result [12]: binds
